{"source": "patent US20060257938A1", "about": "“Method of screening for drugs that block ligand binding to a lipid binding protein” (priority 2005, published 2006)", "type_in_all_cases": "binding", "key": {"[1]": {"assay": "Probe fluorescence ratio response to arachidonic acid relative to ADIFAB2", "details": "arachidonic acid; response relative to ADIFAB2", "how_it_was_run": "(§1)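 Fluorescently labeled rat intestinal FABP variants were read at two emission wavelengths, near the unbound maximum (about 420 to 480 nm) and the FFA-bound maximum (about 495 to 580 nm). R = Fλ1/Fλ2 after subtracting probe-free intensity; ΔR = R+agent − R0, normalized to ADIFAB2 (rI-FABP-L72A).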"}, "[2]": {"assay": "Probe fluorescence ratio response to palmitic acid relative to ADIFAB2", "details": "response relative to ADIFAB2", "how_it_was_run": "as §1"}, "[3]": {"assay": "Probe fluorescence ratio response to linolenic acid relative to ADIFAB2", "details": "response relative to ADIFAB2", "how_it_was_run": "as §1"}, "[4]": {"assay": "Probe fluorescence ratio response to oleic acid relative to ADIFAB2", "details": "response relative to ADIFAB2", "how_it_was_run": "as §1"}, "[5]": {"assay": "Probe fluorescence ratio response to linoleic acid relative to ADIFAB2", "details": "response relative to ADIFAB2", "how_it_was_run": "as §1"}}, "note": "“And” between values parts separate entries of the source, which are not always exact repeats. Equal values may be shown once."}
{"molecule": "17F, 72A (protein, listed as Rattus norvegicus, PEPTIDE (1)...(131) wild-type rat intestinal fatty acid binding protein) AFDGTWKVDRNENYEKFMEKMGINVVKRKLGAHDNLKLTITQEGNKFTVKESSNFRNIDVVFELGVDFAYSAADGTELTGTWTMEGNKLVGKFKRVDNGKELIAVREISGNELIQTYTYEGVEAKRIFKKE", "values": [{"measurement": "DR/DR AA", "setting": "[1]", "result": 1.37}, {"measurement": "DR/DR PA", "setting": "[2]", "result": 1.14}, {"measurement": "DR/DR LNA", "setting": "[3]", "result": 1.38}, {"measurement": "DR/DR OA", "setting": "[4]", "result": 1.42}, {"measurement": "DR/DR LA", "setting": "[5]", "result": 1.35}]}
{"molecule": "17H, 72A (protein, listed as Rattus norvegicus, PEPTIDE (1)...(131) wild-type rat intestinal fatty acid binding protein) AFDGTWKVDRNENYEKHMEKMGINVVKRKLGAHDNLKLTITQEGNKFTVKESSNFRNIDVVFELGVDFAYSAADGTELTGTWTMEGNKLVGKFKRVDNGKELIAVREISGNELIQTYTYEGVEAKRIFKKE", "values": [{"measurement": "DR/DR AA", "setting": "[1]", "result": 0.52}, {"measurement": "DR/DR PA", "setting": "[2]", "result": 0.22}, {"measurement": "DR/DR LNA", "setting": "[3]", "result": 0.50}, {"measurement": "DR/DR OA", "setting": "[4]", "result": 0.40}, {"measurement": "DR/DR LA", "setting": "[5]", "result": 0.48}]}
{"molecule": "17P, 72A (protein, listed as Rattus norvegicus, PEPTIDE (1)...(131) wild-type rat intestinal fatty acid binding protein) AFDGTWKVDRNENYEKPMEKMGINVVKRKLGAHDNLKLTITQEGNKFTVKESSNFRNIDVVFELGVDFAYSAADGTELTGTWTMEGNKLVGKFKRVDNGKELIAVREISGNELIQTYTYEGVEAKRIFKKE", "values": [{"measurement": "DR/DR AA", "setting": "[1]", "result": 0.51}, {"measurement": "DR/DR PA", "setting": "[2]", "result": 0.24}, {"measurement": "DR/DR LNA", "setting": "[3]", "result": 0.63}, {"measurement": "DR/DR OA", "setting": "[4]", "result": 0.55}, {"measurement": "DR/DR LA", "setting": "[5]", "result": 0.60}]}
{"molecule": "17K 72A (protein, listed as Rattus norvegicus, PEPTIDE (1)...(131) wild-type rat intestinal fatty acid binding protein) AFDGTWKVDRNENYEKKMEKMGINVVKRKLGAHDNLKLTITQEGNKFTVKESSNFRNIDVVFELGVDFAYSAADGTELTGTWTMEGNKLVGKFKRVDNGKELIAVREISGNELIQTYTYEGVEAKRIFKKE", "values": [{"measurement": "DR/DR AA", "setting": "[1]", "result": 0.28}, {"measurement": "DR/DR PA", "setting": "[2]", "result": 0.13}, {"measurement": "DR/DR LNA", "setting": "[3]", "result": 0.29}, {"measurement": "DR/DR OA", "setting": "[4]", "result": 0.31}, {"measurement": "DR/DR LA", "setting": "[5]", "result": 0.33}]}
{"molecule": "17I, 72A (protein, listed as Rattus norvegicus, PEPTIDE (1)...(131) wild-type rat intestinal fatty acid binding protein) AFDGTWKVDRNENYEKIMEKMGINVVKRKLGAHDNLKLTITQEGNKFTVKESSNFRNIDVVFELGVDFAYSAADGTELTGTWTMEGNKLVGKFKRVDNGKELIAVREISGNELIQTYTYEGVEAKRIFKKE", "values": [{"measurement": "DR/DR AA", "setting": "[1]", "result": 0.64}, {"measurement": "DR/DR PA", "setting": "[2]", "result": "0.28 and 0.283"}, {"measurement": "DR/DR LNA", "setting": "[3]", "result": "0.54 and 0.541"}, {"measurement": "DR/DR OA", "setting": "[4]", "result": "0.62 and 0.624"}, {"measurement": "DR/DR LA", "setting": "[5]", "result": "0.50 and 0.499"}]}
{"molecule": "17M, 72A (protein, listed as Rattus norvegicus, PEPTIDE (1)...(131) wild-type rat intestinal fatty acid binding protein) AFDGTWKVDRNENYEKMMEKMGINVVKRKLGAHDNLKLTITQEGNKFTVKESSNFRNIDVVFELGVDFAYSAADGTELTGTWTMEGNKLVGKFKRVDNGKELIAVREISGNELIQTYTYEGVEAKRIFKKE", "values": [{"measurement": "DR/DR AA", "setting": "[1]", "result": 0.59}, {"measurement": "DR/DR PA", "setting": "[2]", "result": "0.28 and 0.281"}, {"measurement": "DR/DR LNA", "setting": "[3]", "result": "0.53 and 0.532"}, {"measurement": "DR/DR OA", "setting": "[4]", "result": 0.49}, {"measurement": "DR/DR LA", "setting": "[5]", "result": "0.49 and 0.489"}]}
{"molecule": "17R, 72A (protein, listed as Rattus norvegicus, PEPTIDE (1)...(131) wild-type rat intestinal fatty acid binding protein) AFDGTWKVDRNENYEKRMEKMGINVVKRKLGAHDNLKLTITQEGNKFTVKESSNFRNIDVVFELGVDFAYSAADGTELTGTWTMEGNKLVGKFKRVDNGKELIAVREISGNELIQTYTYEGVEAKRIFKKE", "values": [{"measurement": "DR/DR AA", "setting": "[1]", "result": 0.43}, {"measurement": "DR/DR PA", "setting": "[2]", "result": 0.22}, {"measurement": "DR/DR LNA", "setting": "[3]", "result": 0.48}, {"measurement": "DR/DR OA", "setting": "[4]", "result": 0.45}, {"measurement": "DR/DR LA", "setting": "[5]", "result": 0.52}]}
{"molecule": "17L, 72A (protein, listed as Rattus norvegicus, PEPTIDE (1)...(131) wild-type rat intestinal fatty acid binding protein) AFDGTWKVDRNENYEKLMEKMGINVVKRKLGAHDNLKLTITQEGNKFTVKESSNFRNIDVVFELGVDFAYSAADGTELTGTWTMEGNKLVGKFKRVDNGKELIAVREISGNELIQTYTYEGVEAKRIFKKE", "values": [{"measurement": "DR/DR AA", "setting": "[1]", "result": "0.52 and 0.525"}, {"measurement": "DR/DR PA", "setting": "[2]", "result": "0.28 and 0.279"}, {"measurement": "DR/DR LNA", "setting": "[3]", "result": "0.45 and 0.447"}, {"measurement": "DR/DR OA", "setting": "[4]", "result": "0.46 and 0.459"}, {"measurement": "DR/DR LA", "setting": "[5]", "result": 0.42}]}
{"molecule": "17T, 72A (protein, listed as Rattus norvegicus, PEPTIDE (1)...(131) wild-type rat intestinal fatty acid binding protein) AFDGTWKVDRNENYEKTMEKMGINVVKRKLGAHDNLKLTITQEGNKFTVKESSNFRNIDVVFELGVDFAYSAADGTELTGTWTMEGNKLVGKFKRVDNGKELIAVREISGNELIQTYTYEGVEAKRIFKKE", "values": [{"measurement": "DR/DR AA", "setting": "[1]", "result": 0.50}, {"measurement": "DR/DR PA", "setting": "[2]", "result": 0.25}, {"measurement": "DR/DR LNA", "setting": "[3]", "result": 0.51}, {"measurement": "DR/DR OA", "setting": "[4]", "result": 0.49}, {"measurement": "DR/DR LA", "setting": "[5]", "result": 0.51}]}
{"molecule": "17Q, 72A (protein, listed as Rattus norvegicus, PEPTIDE (1)...(131) wild-type rat intestinal fatty acid binding protein) AFDGTWKVDRNENYEKQMEKMGINVVKRKLGAHDNLKLTITQEGNKFTVKESSNFRNIDVVFELGVDFAYSAADGTELTGTWTMEGNKLVGKFKRVDNGKELIAVREISGNELIQTYTYEGVEAKRIFKKE", "values": [{"measurement": "DR/DR AA", "setting": "[1]", "result": 0.62}, {"measurement": "DR/DR PA", "setting": "[2]", "result": 0.29}, {"measurement": "DR/DR LNA", "setting": "[3]", "result": 0.59}, {"measurement": "DR/DR OA", "setting": "[4]", "result": 0.55}, {"measurement": "DR/DR LA", "setting": "[5]", "result": 0.59}]}
{"molecule": "17G, 72A (protein, listed as Rattus norvegicus, PEPTIDE (1)...(131) wild-type rat intestinal fatty acid binding protein) AFDGTWKVDRNENYEKGMEKMGINVVKRKLGAHDNLKLTITQEGNKFTVKESSNFRNIDVVFELGVDFAYSAADGTELTGTWTMEGNKLVGKFKRVDNGKELIAVREISGNELIQTYTYEGVEAKRIFKKE", "values": [{"measurement": "DR/DR AA", "setting": "[1]", "result": 0.48}, {"measurement": "DR/DR PA", "setting": "[2]", "result": 0.28}, {"measurement": "DR/DR LNA", "setting": "[3]", "result": 0.62}, {"measurement": "DR/DR OA", "setting": "[4]", "result": 0.52}, {"measurement": "DR/DR LA", "setting": "[5]", "result": 0.58}]}
{"molecule": "17S, 72A (protein, listed as Rattus norvegicus, PEPTIDE (1)...(131) wild-type rat intestinal fatty acid binding protein) AFDGTWKVDRNENYEKSMEKMGINVVKRKLGAHDNLKLTITQEGNKFTVKESSNFRNIDVVFELGVDFAYSAADGTELTGTWTMEGNKLVGKFKRVDNGKELIAVREISGNELIQTYTYEGVEAKRIFKKE", "values": [{"measurement": "DR/DR AA", "setting": "[1]", "result": 0.50}, {"measurement": "DR/DR PA", "setting": "[2]", "result": 0.25}, {"measurement": "DR/DR LNA", "setting": "[3]", "result": 0.61}, {"measurement": "DR/DR OA", "setting": "[4]", "result": 0.47}, {"measurement": "DR/DR LA", "setting": "[5]", "result": 0.56}]}
{"molecule": "17N, 72A (protein, listed as Rattus norvegicus, PEPTIDE (1)...(131) wild-type rat intestinal fatty acid binding protein) AFDGTWKVDRNENYEKNMEKMGINVVKRKLGAHDNLKLTITQEGNKFTVKESSNFRNIDVVFELGVDFAYSAADGTELTGTWTMEGNKLVGKFKRVDNGKELIAVREISGNELIQTYTYEGVEAKRIFKKE", "values": [{"measurement": "DR/DR AA", "setting": "[1]", "result": 0.47}, {"measurement": "DR/DR PA", "setting": "[2]", "result": 0.22}, {"measurement": "DR/DR LNA", "setting": "[3]", "result": 0.51}, {"measurement": "DR/DR OA", "setting": "[4]", "result": 0.49}, {"measurement": "DR/DR LA", "setting": "[5]", "result": 0.50}]}
